{"source": "the DeepSol protein solubility set"}
{"assay": "soluble on expression in E. coli; label from the status in PepcDB or PDB records"}
{"sequence": "MNTNSYSMAQDNEEITKLEAPSTNKTNTLLSQSHAVVNHGDNGQINGKKTKEIHRVKRASDKKVSSKRVSRTWKIPKYPKKQPKSDQEHPGFNLDYMQPTTHPPHHN", "soluble on expression in E. coli": "soluble"}
{"sequence": "MNTPAQRHFTLEPANAERLADLSGCFNEHLRQIELRLGVEIANRGHTFHITGPEPAVTSTETLLRALYAEATGTTFNNHTIQLRLSEAHMAQIVEQTDTPQDIGIRVKRGTVRGHGANQTKYLHKIATHDINFGIGPAGTGKTFLAVASAVEALNESRVQRLILVRPAVEAGEKLGFLPGDLNQKIDPYLRPLYDALYEMLGVEKVLKLLEKNIIEIAPLAYMRGRTLNNAFVILDEAQNTTIEQMKMFLTRLGFGSTAVVTGDLTQIDIPKHLKSGLDDAIEVLHDIEGISFTFFKSHDVVRHPLVARIVSAYDKHNTHPSTTKPA", "soluble on expression in E. coli": "not soluble"}
{"sequence": "MNTPLQRPLADSTGLIENDAHALAVATALAQEFSIDAALRDRERQIPYSELDAVSRSGILGISIPLAFGGAEVNNVILAKVIAQIAQADGSLGQILQNHFHTLEALRVYGSRAQQQRIFAEVLAGALFGVAVDEQGTTNSQICTAVLAPSGEGYRISGRKFCATCAPYTRQILASAVDAQGARYMVFISLDALGLSIVDDGSCFGQRTVGGGSVMFDNVYVTSSDVVPFQVSLNDPNCVERHAQFMHAAVGTGIARAAYEDTLRFVREHARPWPEAAVDKARDDPLTIIEIGRLIIRLHAAEALLERAGAAVDLNRKAVCAENVALASMVVAAAQTLSTEVSLAAGSKLIELGGARATLSDYGLDRHWRNARVHTLYDPARWGPHQQGQQKLAPF", "soluble on expression in E. coli": "not soluble"}
{"sequence": "MNTTPFPALSAETLLAVNTVGQWLAQNDFSGEQPYSSDCVVLAGNAVIPTIDAACRIAKAQGVPLLISGGIGHSTPFLYAVIARHPRYHTIRTSGRAEAAILADIANQFWHIPAEKIWLEDRSTNCGENARFSCALIRQAKENINTAIVVQDPTMQRRTIAAFRRVTNDDTDAPRWLSFPGFVPVLRHLNDGTRFANVEEGIWTVERYLSLIAGELPRLRDDETGYGPRGKDFIIHVDIPRDIENAWQVLQADTTLRSALGQRALRLEHHHHHH", "soluble on expression in E. coli": "soluble"}
{"sequence": "MNVLVIEDDKVFRGLLEEYLSMKGIKVESAERGKEAYKLLSEKHFNVVLLDLLLPDVNGLEILKWIKERSPETEVIVITGHGTIKTAVEAMKMGAYDFLTKPCMLEEIELTINKAIEHRKLRKENELLRREKDLKEEEYVFESPKMKEILEKIKKISCAECPVLITGESGVGKEVVARLIHKLSDRSKEPFVALNVASIPRDIFEAELFGYEKGAFTGAVSSKEGFFELADGGTLFLDEIGELSLEAQAKLLRVIESGKFYRLGGRKEIEVNVRILAATNRNIKELVKEGKFREDLYYRLGVIEIEIPPLRERKEDIIPLANHFLKKFSRKYAKEVEGFTKSAQELLLSYPWYGNVRELKNVIERAVLFSEGKFIDRGELSCLVNSK", "soluble on expression in E. coli": "soluble"}
{"sequence": "MNVVKFGGSSLASAPQLQKVLQIVKEEPRRTFVVVSAPGKRTPQDIKVTDLLIQYYQRYLNNEEIESTISAIIRRYEDLFDELHLDKAVLADIAISIRQLATLPKENNAFLFDYFLASGEDNNAKVVASFFKQNGLDARYISPKELGLLVTPEPGNARILPKALEKISVYRETQQILVIPGFFGYTEAGEICTFSRGGSDITGSIVAAGVQADLYENFTDVDGIYVAHPGIIEQPQTIQELTYREMRELAYAGFAVLHDEALMPAYRANIPVVIKNTNNPHHPGTLITTSRKVKHAPVVGIASDQGFASIYISKYLMNRELGFGRRLLEVLEKLALSYEHMPSGIDDITIVLREDQLTTEIENRLMAQLQEVLAPDELRITHHLSMIMIVGEGMRQRIGVTAESTMALAKEKINLEMINQGSSEVSIMFGIKKEQEEKAIKALYRTFFHD", "soluble on expression in E. coli": "not soluble"}
{"sequence": "MNVWLLGRGELRRRHDDVLQLERAFLTDRTGLHFVNARSSEDLLALAESRRAEQQWPVLDAEWISPVGTDTCDDLVWQNLESTLDGRPDTFYSTAGFEAGNTLSGTGELAPGEAFLAYRFWRPVRVYAVQLRAFQADFHPGRPVYPFQVARVGVGCSLQAGMSLSYGADASAPGTSCNYRCFCTTEQQTLVFDDPMVGVYLVICLKGFPQQQLTDRLHYAAVSGIRVFGEPISSPALENELSCLISRGFILDGRDAARWLDLRSAQEHAAPMHIPEDEVI", "soluble on expression in E. coli": "not soluble"}
{"sequence": "MNYFVGNSLGVNLTGIEKAIINRLNLFKEMGRPAQCVFLSWNRYLYRNAQNYITSSDYINMYDFFQEATYLERNEPFDWLSYWTDECHYTLKHVENSHDFRIYDQERFLMYAHFQDPKYRILDYVNHFDSQRRKVKRDFYDVRGFLSCSRILVDKQQTLCEFFYNPEGDTKLEKYFSYKDGKPEVQKIIVYYANKQYFFNNETELGAFFIKQLYQHGDLFFSDRNVYTAPIFNLTPESIPVVAVLHSTHIKNIDALDSSPFKNVYKAMFENLSRYRAIIVSTEQQKLDVEKRINHTIPVVNIPVGYSETIDTPVQTLDQRSVKLISVARYSPEKQLHQQIELIKRLVSYVPKIELHMYGFGSESKKLNELIQKYGLENHVYLRGFLSNLDQEYSDAYLSLITSNMEGFSLALLESLAHGVPVISYDIKYGPNELITSDFNGYLITKNDEDALFDKVKYVIDHPEVQQRLSKGSLAKAQQYSKASLIKQWDQFVRLI", "soluble on expression in E. coli": "not soluble"}
{"sequence": "MNYRHIYHAGNFADVFKHIIVTRIIEYLKRKEKAFRVIDTHAGIGIYDLSSLEAHKTGEWREGVYQLLSTPIPEDLKALLYPWCNIIETLNKGKKDILFYPGSPVLIRQLLRKQDRLTAIELHREDYHILAKNFAGDYQTKVLHLNGWLSLNAHLPPKEKRGFILVDPPFEKPGEFSRLIEGLMKAYRRFSGGIYALWYPVKYDKEIENFLHALHQTGIPKILQLEMRIRKSSIPPTMNGSGMILINPPYLLEEEIKKLSPFLIARLGQDKNAQITHKWIQKEQLLC", "soluble on expression in E. coli": "not soluble"}
{"sequence": "MNYRNKAFLKYEEDYFIERIIKALKDYEEIIIISNNPEEYKEFGLKVFKDIYPSQGPLSGIHSALNHIKNDYCLVVACDMPFINKDVVNYLGNIKEDYEILIPKFQERLQPLCAIYKKSCKDIMEKELINNSNKLIKTCFKFSMKVVEEFPFIEKVHKKEIKNFYNINTVDEYEDLIKKKEILEHHHHHH", "soluble on expression in E. coli": "not soluble"}
{"sequence": "MPAKDVQICPIAVDTTVFRSRTWDRLKFEIEYGLQRGTTANSYLISADKIALFDPPGESFTDNFVGTLIQRLDLNSLDYVILGHVNANRAHTLKLLLSLAPQATIICSNPAAQNLEKLLADAEVNNPIQVMKGNDHLDLGRGHELTFIPTPSPRYPGQLCTYDPRTEILFTDKLFGAHVCGDQVFDEGWTIYQEDRRYYFDCLLAPAAAQVSAALNKLEAYPAQTYAPSHGPLVRYGLRELTRNYQQWLSEQQAQALEHHHHHH", "soluble on expression in E. coli": "not soluble"}
{"sequence": "MPAPLYGADDPLRCSGNSVSEVLDKFRKKYDLIMSLPQETKEEKEFRHCIWLAEKEEREQIYQTSIRPFRKATYTHFPEIDPRLRNYRSRYGAISND", "soluble on expression in E. coli": "not soluble"}
{"sequence": "MPCVQAQYGSSPQGASPASQSYSYHSSGEYSSDFLTPEFVKFSMDLTNTEITATTSLPSFSTFMDNYSTGYDVKPPCLYQMPLSGQQSSIKVEDIQMHNYQQHSHLPPQSEEMMPHSGSVYYKPSSPPTPTTPGFQVQHSPMWDDPGSLHNFHQNYVATTHMIEQRKTPVSRLSLFSFKQSPPGTPVSSCQMRFDGPLHVPMNPEPAGSHHVVDGQTFAVPNPIRKPASMGFPGLQIGHASQLLDTQVPSPPSRGSPSNEGLCAVCGDNAACQHYGVRTCEGCKGFFKRTVQKNAKYVCLANKNCPVDKRRRNRCQYCRFQKCLAVGMVKEVVRTDSLKGRRGRLPSKPKSPQEPSPPSPPVSLISALVRAHVDSNPAMTSLDYSRFQANPDYQMSGDDTQHIQQFYDLLTGSMEIIRGWAEKIPGFADLPKADQDLLFESAFLELFVLRLAYRSNPVEGKLIFCNGVVLHRLQCVRGFGEWIDSIVEFSSNLQNMNIDISAFSCIAALAMVTERHGLKEPKRVEELQNKIVNCLKDHVTFNNGGLNRPNYLSKLLGKLPELRTLCTQGLQRIFYLKLEDLVPPPAIIDKLFLDTLPF", "soluble on expression in E. coli": "soluble"}
{"sequence": "MPDDKVPTVPDKGADGSPGSSFKNPEILSSQPSESMQAVYEILIQGNNLKTGLPSIVKSQEDLQTLYSVLYGNSLKAPLIDFSKKAVVIAAAGPFNTGGYSIVPVSAIKTGKIINLVFEVKSPGPKDMVTQAFTRPYVIVSVDAEPDTEIFIEINGDAKNDKLDF", "soluble on expression in E. coli": "not soluble"}
{"sequence": "MPDGTIDGGHPQRPASPRLRSPLLRLATWNVNSIRTRLDRVLDWLGRADVDVLAMQETKCPDGQFPALPLFELGYDVAHVGFDQWNGVAIASRVGLDDVRVGFDGQPSWSGKPEVAATTEARALGATCGGIRVWSLYVPNGRALDDPHYTYKLDWLAALRDTAEGWLRDDPAAPIALMGDWNIAPTDDDVWSTEFFAGCTHVSEPERKAFNAIVDAQFTDVVRPFTPGPGVYTYWDYTQLRFPKKQGMRIDFILGSPALAARVMDAQIVREERKGKAPSDHAPVLVDLHAG", "soluble on expression in E. coli": "not soluble"}
{"sequence": "MPENYTPAAAATGTWTEEEIRHQPRAWIRSLTNIDALRSALNNFLEPLLRKENLRIILTGAGTSAFIGDIIAPWLASHTGKNFSAVPTTDLVTNPMDYLNPAHPLLLISFGRSGNSPESVAAVELANQFVPECYHLPITCNEAGALYQNAINSDNAFALLMPAETHDRGFAMTSSITTMMASCLAVFAPETINSQTFRDVADRCQAILTSLGDFSEGVFGYAPWKRIVYLGSGGLQGAARESALKVLELTAGKLAAFYDSPTGFRHGPKSLVDDETLVVVFVSSHPYTRQYDLDLLAELRRDNQAMRVIAIAAESSDIVAAGPHIILPPSRHFIDVEQAFCFLMYAQTFALMQSLHMGNTPDTPSASGTVNRVVQGVIIHPWQA", "soluble on expression in E. coli": "soluble"}
{"sequence": "MPESSRDKGNAAISGNRSVLSIASPTKLNILSSDWSRNQGKVSKNSLKRSSSLNIRNSKRPSLQASANSIYSRPKITIGAPPLIRRDSSFFKDEFDAKKDKATFSAYSSRSYPTIGSESVVSQTSLSQPTTSREVDEQFTVAADRYIPILQGASQNKVDPETLHEALPPPNASPISHLRAQTKIVFKQNVAEACGLDMNKRILQYMPEPPKCSSLRQKSYIMKKRTHYSYQQEQKIPDLIKLRKINTNPERILDAPGFQDDFYLNLLSWSKKNVLAIALDTALYLWNATTGDVSLLTDFENTTICSVTWSDDDCHISIGKEDGNTEIWDVETMSLIRTMRSGLGVRIGSLSWLDTLIATGSRSGEIQINDVRIKQHIVSTWAEHTGEVCGLSYKSDGLQLASGGNDNTVMIWDTRTSLPQFSKKTHTAAVKALSWCPYSPNILASGGGQTDKHIHFWNSITGARVGSINTGSQVSSLHWGQSHTSTNGGMMNKEIVATGGNPENAISVYNYETKFKVAEVVHAHEARICCSQLSPDGTTLATVGGDENLKFYKIFDPRCTGRSREDGLMDGMLGLIGKEGCRTNDKENRSKNSSEIHTRRPSSTSQYLIR", "soluble on expression in E. coli": "not soluble"}
{"sequence": "MPFSISGRKGSEMMAKLDELKQKLTAKQIQAAYLLVENELMESNNEEKRTQDEMANELGINRTTLWEWRTKNQDFIAFKSEVADSFLAEKREQVYSKLMQLILGPQPSVKAMQLYMQRFGLLTDKKVIEGDLGNATRTNAEIEEQLQKLKKLTGE", "soluble on expression in E. coli": "soluble"}
{"sequence": "MPGDSMCQAMAGNERHMLTSVKTGTYTMPVLHNRVSNEELKARMLAETEPRTTVSFYKYFTIDDPKAFRDRLYIQLEQYKVFGRIYIAAEGINAQISVPNNQFDAFKTGLFSAHPALDQIRLNIALEDDGKSFWVLRMKVRERIVADGIDDPTFNPANVGQYLKADRVNAMADDPDTVFVDMRNHYEYEVGHFQNALEVPSDTFREQLPMAVDMLDDIRDKNIVMYCTGGIRCEKASAYMLHHGFKNVYHVEGGIIEYARQAKAQGLPLKFIGKNFVFDERMGERISDDVIAHCHQCGASCDSHTNCRNEGCHLLFIQCPSCAAKYEGCCSTQCQDEMKLPLEEQRAIRSGRENGMKIFNKSKGLLQSTLHIPAPAAKDNAELEHHHHHH", "soluble on expression in E. coli": "not soluble"}
{"sequence": "MPGELDTFKEAVKIIIEKEFPELLSPARHMMRAIVIDARQSDCDLQVLAADGSPHPSFPPLANVLVPVRKSVQIGQKVRIGFYYGDPAMPYIDEVLSNGEA", "soluble on expression in E. coli": "not soluble"}
